Patent US20060234285A1 (Human Genome Sciences, published 2006)
Each block holds one binder with its values, some of them ahead of it.

B3: TNF-gamma-beta, full length, on transfected cells (ligand, human, UniProt O95150 1-251, looked up)
chain: MAEDLGLSFGETASVEMLPEHGSCRPKARSSSARWALTCCLVLLPFLAGLTTYLLVSQLRAQGEACVQFQALKGQEFAPSHQQVYAPLRADGDKPRAHLTVVRQTPTQHFKNQFPALHWEHELGLAFTKNRMNYTNKFLLIPESGDYFIYSQVTFRGMTSECSEIRQAGRPNKPDSITVVITKVTDSYPEPTQLLMGTKSVCEVGSNWFQPIYLGAMFSLQEGDKLMVNVSDISLVDYTKEDKTFFGAFLL
notes: whole, on cells; also called TL1β
B5: Human LIGHT protein, natural secreted form (aa83-240) (ligand, UniProt O43557 83-240, looked up)
chain: LIQERRSHEVNPAAHLTGANSSLTGSGGPLLWETQLGLAFLRGLSYHDGALVVTKAGYYYIYSKVQLGGVGCPLGLASTITHGLYKRTPRYPEELELLVSQQSPCGRATSSSRVWWDSSFLGGVVHLEAGEKVVVRVLDERLVRLRDGTRSYFGAFMV
notes: range 83-240; also called soluble LIGHT
B7: Full-length human TR6 (without Fc) (receptor)
chain: VAETPTYPWRDAETGERLVCAQCPPGTFVQRPCRRDSPTTCGPCPPRHYTQFWNYLERCRYCNVLCGEREEEARACHATHNRACRCRTGFFAHAGFCLEHASCPPGAGVIAPGTPSQNTQCQPCPPGTFSASSSSSEQCQPHRNCTALGLALNVPGSSSHDTLCTSCTGFPLSTRVPGAEECERAVIDFVAFQDISIKRLQRLLQALEAPEGWGPTPRAGRAALQLKLRRRLTELLGAQDGALLVRLLQALRVARMPGLERSVRERFLPVH
notes: Full-length cDNA expressed in Sf9 cells with the natural leader; also called TR6 non-Fc; TR6-non-Fc

What was measured:
[1] = target: B5; assay: BIAcore, TR2-Fc immobilized, LIGHT in flow; TR2-Fc
Description: (§1) The amount of bound protein was determined during washing of the flow cell with HBS buffer (10 mM HEPES, pH 7.4, 150 mM NaCl, 3.4 mM EDTA, 0.005% Surfactant P20). The flow cell surface was regenerated by washing off the bound proteins with 20 microliters of 10 mM glycine-HCl pH 2.3. […] The on- and off-rates were determined according a kinetic evaluation program in the BiaEvaluation 3 software using a 1:1 binding model and the global analysis method.

[2] = target: T1, Recombinant, untagged TNF-gamma-beta protein (aa 72-251) from E. coli (human, UniProt O95150 72-251); assay: BIAcore, three batches of TNF-gamma-beta; DR3-Fc, average of three batches
T1 construct: also called TL1β; recombinant TL1β protein
T1 sequence (looked up): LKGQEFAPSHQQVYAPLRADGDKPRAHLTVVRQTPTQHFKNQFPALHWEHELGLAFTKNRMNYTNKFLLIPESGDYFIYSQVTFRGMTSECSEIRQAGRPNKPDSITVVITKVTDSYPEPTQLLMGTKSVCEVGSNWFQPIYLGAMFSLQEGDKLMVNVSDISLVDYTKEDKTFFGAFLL
Description: (§2) TNFR-Fc were covalently immobilized to the BIAcore sensor chip (CM5 chip) via amine groups using N-ethyl-N′-(dimethylaminopropyl) carbodiimide/N-hydroxysuccinimide chemistry. […] The amount of bound protein was determined during washing of the flow cell with HBS buffer (10 mM HEPES, pH 7.4, 150 mM NaCl, 3.4 mM EDTA, 0.005% Surfactant P20). The flow cell surface was regenerated by displacing bound protein by washing with 20 microliters of 10 mM glycine-HCl, pH 2.3. For kinetic analysis, the on and off rates were determined using the kinetic evaluation program in BIAevaluation 3 software using a 1:1 binding model and the global analysis method.

[3] = target: T1, Recombinant, untagged TNF-gamma-beta …; assay: BIAcore, DR3-Fc immobilized, TNF-gamma-beta 3-370 nM in flow; DR3-Fc
Description: as §2

[4] = target: T2, TNFR-6 alpha-Fc fusion protein (full length TNFR-6 alpha, amino acids 1-300 of SEQ ID NO:2, fused to the Fc … (human, UniProt O95407 30-300)); assay: FACS on transfected cells
T2 construct: Construct M1-H300 fused to Fc (pA2Fc:TR6, baculovirus/Sf9); the secreted protein starts at Val 30 and is a disulfide-linked dimer; also called TNFR6-Fc; TR6-Fc
T2 sequence: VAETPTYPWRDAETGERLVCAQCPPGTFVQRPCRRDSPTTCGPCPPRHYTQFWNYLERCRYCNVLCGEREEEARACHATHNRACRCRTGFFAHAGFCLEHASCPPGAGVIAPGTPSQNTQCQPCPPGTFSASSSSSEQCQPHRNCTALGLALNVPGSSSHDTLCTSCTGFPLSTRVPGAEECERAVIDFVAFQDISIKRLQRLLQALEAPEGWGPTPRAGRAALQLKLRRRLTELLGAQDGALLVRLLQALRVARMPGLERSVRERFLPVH

DR6-Fc = target: T3, DR6-Fc (UniProt O75509 42-349, limits assumed); assay: flow cytometry on HEK293F cells expressing full length TNF-gamma-beta
T3 construct: extracellular domain
T3 sequence (looked up): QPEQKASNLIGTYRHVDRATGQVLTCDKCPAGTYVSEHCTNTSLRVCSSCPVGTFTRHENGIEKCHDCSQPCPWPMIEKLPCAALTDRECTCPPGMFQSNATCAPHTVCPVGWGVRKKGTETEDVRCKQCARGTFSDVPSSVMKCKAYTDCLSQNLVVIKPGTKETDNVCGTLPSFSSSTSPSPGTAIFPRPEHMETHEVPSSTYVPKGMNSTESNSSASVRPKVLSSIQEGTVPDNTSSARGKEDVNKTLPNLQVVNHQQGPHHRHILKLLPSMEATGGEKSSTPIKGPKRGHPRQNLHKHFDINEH
Description: (§3) One million cells, in 0.1 ml of FACS buffer (PBS, 0.1% BSA, 0.1% NaN₃), were incubated with 0.1-1 microgram of protein or antibody at RT for 15 min. The cells were washed with 3 ml of FACS buffer, reacted with biotinylated primary antibody, and stained with PE-conjugated secondary antibody at RT for 15 min. Cells were then washed again, resuspended in 0.5 microgram/ml of propidium iodide, and live cells were gated and analyzed on a FACScan using the CellQuest software (BD Biosciences).

[5] = target: T1, Recombinant, untagged TNF-gamma-beta …; assay: BIAcore, receptor-Fc immobilized
Description: as §2

[6] = target: T2, TNFR-6 alpha-Fc fusion protein (full …); assay: BIAcore, receptor immobilized, LIGHT in flow; TR6-Fc
Description: as §1

[7] = target: B7; assay: BIAcore; TR6 without Fc
Description: as §1

[8] = target: T2, TNFR-6 alpha-Fc fusion protein (full …); assay: BIAcore; TR6-Fc
Description: as §1

[9] = target: T2, TNFR-6 alpha-Fc fusion protein (full …); assay: conclusion from flow cytometry
[10] = target: B7; assay: flow cytometry competition on activated human T cells
[11] = target: T4, Murine FasL on transfected murine L929 cells (murine, UniProt P41047 1-279); assay: cell-based or functional assay
T4 sequence (looked up): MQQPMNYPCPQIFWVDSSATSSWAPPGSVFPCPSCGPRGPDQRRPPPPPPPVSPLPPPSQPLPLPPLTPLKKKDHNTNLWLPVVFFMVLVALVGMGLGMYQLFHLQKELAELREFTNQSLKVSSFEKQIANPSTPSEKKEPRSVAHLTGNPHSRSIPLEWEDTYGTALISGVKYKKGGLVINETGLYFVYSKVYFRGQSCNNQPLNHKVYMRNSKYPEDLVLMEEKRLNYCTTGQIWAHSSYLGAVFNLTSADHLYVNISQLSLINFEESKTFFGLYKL

[12] = target: B5; assay: BIAcore
[13] = target: T5, Soluble human FLAG-FasL (synthesized at HGS) (human, UniProt P48023 130-281, limits assumed); assay: BIAcore
T5 construct: called trimerized in the kinetic BIAcore run; cross-linked with FLAG antibody in the cell assays; also called FasL-Flag; trimerized FLAG-FasL
T5 sequence (looked up): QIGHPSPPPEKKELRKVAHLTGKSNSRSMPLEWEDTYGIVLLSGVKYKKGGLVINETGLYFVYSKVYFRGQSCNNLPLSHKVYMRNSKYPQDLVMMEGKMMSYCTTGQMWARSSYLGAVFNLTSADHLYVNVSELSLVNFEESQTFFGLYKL

[14] = target: B3; assay: flow cytometry competition, competitor DR3-Fc
Description: as §3

Binder: B3
binding result [4]: binds
binding result (DR6-Fc): no binding

Binder: B5
Kd [6]: 5.46 nM
Kd [7]: 14.3 nM
koff [7]: 0.00483 s⁻¹
kon [7]: 338000 M⁻¹ s⁻¹
koff [8]: 0.0023 s⁻¹
kon [8]: 422000 M⁻¹ s⁻¹

Binder: B7
IC50 of inhibition of killing of A20 target cells by murine FasL-transfected L929 cells [11]: ~1 ng/mL
fold higher off rate against TR6-Fc [12]: ~2 fold
fold reduction in affinity against TR6-Fc [13]: 4 fold
molar ratio of TR6 to DR3-Fc at which no DR3-Fc binding was detected [14]: 2 molar ratio (TR6:DR3-Fc)

Further lines, results first:

Kd [1]: 4.56 nM
B1: Human TR2-Fc (extracellular domain of TR2, aa1-192, fused to the Fc domain of human IgG1) (Fc fusion, not shown: a dimerising Fc or GST)
chain: LPSCKEDEYPVGSECCPKCSPGYRVKEACGELTGTVCEPCPPGTYIAHLNGLSKCLQCQMCDPAMGLRASRNCSRTENAVCGCSPGHFCIVQDGDHCAACRAYATSSPGQRVQKGGTESQDTLCQNCPPGTFSPNGTLEECQHQTKCSWLVTKA
notes: From CHO cells

Kd [2]: 6.45 nM
koff [3]: 0.00413 s⁻¹
kon [3]: 639000 M⁻¹ s⁻¹
B2: DR3-Fc (extracellular domain of human DR3, aa 1-199, fused to the Fc domain of human IgG1) (Fc fusion, UniProt Q93038 25-199, looked up, not shown: a dimerising Fc or GST)
chain: QGGTRSPRCDCAGDFHKKIGLFCCRGCPAGHYLKAPCTEPCGNSTCLVCPQDTFLAWENHHNSECARCQACDEQASQVALENCSAVADTRCGCKPGWFVECQVSQCVSSSPFYCQPCLDCGALHRHTRLLCSRRDTDCGTCLPGFYEHGDGCVSCPTSTLGSCPERCAAVCGWRQ
notes: range 1-199

binding result [5]: no binding (tested: 3-370 nM)
B4: BCMA-Fc (Fc fusion, human, UniProt Q02223 1-54, looked up, not shown: a dimerising Fc or GST)
chain: MLQMAGQCSQNEYFDSLLHACIPCQLRCSSNTPPLTCQRYCNASVTNSVKGTNA
notes: Control surface in the BIAcore analysis

binding result [9]: binds
binding result [10]: binds
B6: Human LIGHT, full length, on cells (stably transfected 293F cells; endogenous on activated human T cells) (ligand, UniProt O43557 1-240, looked up)
chain: MEESVVRPSVFVVDGQTDIPFTRLGRSHRRQSCSVARVGLGLLLLLMGAGLAVQGWFLLQLHWRLGEMVTRLPDGPAGSWEQLIQERRSHEVNPAAHLTGANSSLTGSGGPLLWETQLGLAFLRGLSYHDGALVVTKAGYYYIYSKVQLGGVGCPLGLASTITHGLYKRTPRYPEELELLVSQQSPCGRATSSSRVWWDSSFLGGVVHLEAGEKVVVRVLDERLVRLRDGTRSYFGAFMV
notes: whole, on cells; also called LIGHT-transfectants; cell membrane LIGHT
